{
  "source": "paper PMC7972864",
  "about": "(2021)",
  "binders": {"B1": {"name": "human Nrf2 protein (natural protein)", "chain": "MMDLELPPPGLPSQQDMDLIDILWRQDIDLGVSREVFDFSQRRKEYELEKQKKLEKERQEQLQKEQEKAFFAQLQLDEETGEFLPIQPAQHIQSETSGSANYSQVAHIPKSDALYFDDCMQLLAQTFPFVDDNEVSSATFQSLVPDIPGHIESPVFIATNQAQSPETSVAQVAPVDLDGMQQDIEQVWEELLSIPELQCLNIENDKLVETTMVPSPEAKLTEVDNYHFYSSIPSMEKEVGNCSPHFLNAFEDSFSSILSTEDPNQLTVNSLNSDATVNTDFGDEFYSAFIAEPSISNSMPSPATLSHSLSELLNGPIDVSDLSLCKAFNQNHPESTAEFNDSDSGISLNTSPSVASPEHSVESSSYGDTLLGLSDSEVEELDSAPGSVKQNGPKTPVHSSGDMVQPLSPSQGQSTHVHDAQCENTPEKELPVSPGHRKTPFTKDKHSSRLEAHLTRDELRAKALHIPFPVEKIINLPVVDFNEMMSKEQFNEAQLALIRDIRRRGKNKVAAQNCRKRKLENIVELEQDLDHLKDEKEKLLKEKGENDKSLHLLKKQLSTLYLEVFSMLRDEDGKPYSPSEYSLQQTRDGNVFLVPKSKKPDVKKN"}},
  "key": {"[1]": {"biological_target": "T1, rhKeap1^R415A+Y525A+ (residue 321-609 aa) (human, UniProt Q14145 321-609, R415A | Y525A, biotinylated (site not stated))", "T1 sequence (Q14145 321-609 R415A/Y525A)": "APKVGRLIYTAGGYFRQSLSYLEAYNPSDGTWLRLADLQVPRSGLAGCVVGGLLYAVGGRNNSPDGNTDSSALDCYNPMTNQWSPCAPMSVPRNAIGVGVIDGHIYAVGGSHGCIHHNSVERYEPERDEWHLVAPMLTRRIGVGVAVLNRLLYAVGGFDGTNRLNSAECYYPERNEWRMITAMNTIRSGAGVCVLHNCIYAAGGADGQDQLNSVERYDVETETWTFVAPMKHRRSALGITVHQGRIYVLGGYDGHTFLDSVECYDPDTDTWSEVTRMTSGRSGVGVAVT", "experiment": "BLI"}, "[2]": {"biological_target": "T1, rhKeap1^R415A+Y525A+ (residue 321-609 …)", "experiment": "BLI", "remark": "listed apart in the source"}},
  "data": [
    {"binder": "B1", "values": [
      {"measurement": "Kd", "setting": "[1]", "value": 107, "unit": "nM"},
      {"measurement": "koff", "setting": "[2]", "value": 0.00262, "unit": "s⁻¹"}
    ]}
  ]
}
